Here are results for three molecules from publication PMC5887321.

Like-named read-outs stand apart in the source and are kept apart here.

Assay in all cases: SEC-SAXS
In general terms: SEC sorts molecules by how far they enter the pores of the column.

Data set [1] addresses T1, FL-RIG-I (human, UniProt O95786 1-925).
T1 sequence: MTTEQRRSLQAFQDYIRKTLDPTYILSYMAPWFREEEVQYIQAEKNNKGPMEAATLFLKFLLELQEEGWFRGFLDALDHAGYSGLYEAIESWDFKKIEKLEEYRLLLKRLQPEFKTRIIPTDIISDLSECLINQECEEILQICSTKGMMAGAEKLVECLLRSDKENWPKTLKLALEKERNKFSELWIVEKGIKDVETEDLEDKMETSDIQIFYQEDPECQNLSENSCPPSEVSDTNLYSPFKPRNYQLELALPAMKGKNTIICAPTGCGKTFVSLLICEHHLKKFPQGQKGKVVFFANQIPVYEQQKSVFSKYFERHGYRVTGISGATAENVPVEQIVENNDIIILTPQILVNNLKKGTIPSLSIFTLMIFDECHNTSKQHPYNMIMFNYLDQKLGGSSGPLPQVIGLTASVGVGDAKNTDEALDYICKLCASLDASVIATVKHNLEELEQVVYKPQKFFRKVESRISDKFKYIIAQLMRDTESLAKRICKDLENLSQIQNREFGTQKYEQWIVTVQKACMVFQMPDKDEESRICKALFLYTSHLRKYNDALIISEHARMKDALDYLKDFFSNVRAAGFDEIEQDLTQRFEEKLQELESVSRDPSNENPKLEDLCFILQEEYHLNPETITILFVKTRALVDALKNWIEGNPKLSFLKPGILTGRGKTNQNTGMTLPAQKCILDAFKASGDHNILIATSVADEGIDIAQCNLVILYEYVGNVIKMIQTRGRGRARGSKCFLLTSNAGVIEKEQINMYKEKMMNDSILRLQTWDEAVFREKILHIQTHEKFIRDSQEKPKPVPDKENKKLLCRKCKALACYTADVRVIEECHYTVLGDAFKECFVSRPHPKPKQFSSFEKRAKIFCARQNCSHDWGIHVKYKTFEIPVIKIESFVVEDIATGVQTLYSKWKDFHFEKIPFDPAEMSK

Data set [2] concerns the target T2, DC-RIG-I (CARDs-truncated) (human, UniProt O95786 239-925).
T2 sequence: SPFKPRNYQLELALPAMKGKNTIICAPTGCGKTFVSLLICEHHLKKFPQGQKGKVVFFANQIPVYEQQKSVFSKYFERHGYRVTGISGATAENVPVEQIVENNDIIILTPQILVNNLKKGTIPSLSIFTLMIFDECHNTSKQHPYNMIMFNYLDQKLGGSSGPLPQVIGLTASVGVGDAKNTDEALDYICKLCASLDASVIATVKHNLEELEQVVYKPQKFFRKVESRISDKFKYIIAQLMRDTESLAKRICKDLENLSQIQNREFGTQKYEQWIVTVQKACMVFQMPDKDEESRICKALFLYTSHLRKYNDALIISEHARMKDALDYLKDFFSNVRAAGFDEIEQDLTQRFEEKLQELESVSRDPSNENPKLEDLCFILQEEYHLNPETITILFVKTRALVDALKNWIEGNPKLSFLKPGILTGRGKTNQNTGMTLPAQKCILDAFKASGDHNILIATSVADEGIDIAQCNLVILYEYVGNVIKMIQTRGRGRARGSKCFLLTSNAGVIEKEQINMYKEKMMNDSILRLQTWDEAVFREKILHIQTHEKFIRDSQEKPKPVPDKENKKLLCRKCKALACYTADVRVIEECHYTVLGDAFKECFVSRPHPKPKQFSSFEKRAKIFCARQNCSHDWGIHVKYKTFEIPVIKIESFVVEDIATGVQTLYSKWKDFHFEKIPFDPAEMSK

Data set [3] deals with T2, DC-RIG-I (CARDs-truncated). This is another data set of the same source.
The target of data set [4] is T1, FL-RIG-I. The source holds these as a separate data set.
Data set [5] deals with T1, FL-RIG-I. The source holds these as a separate data set.
In data set [6] the target is T2, DC-RIG-I (CARDs-truncated). This is another data set of the same source.

Regarding GGACGUACGUUUCGACGUACGUCC (structured_RNA, 5'-triphosphate) [5'ppp 10 bp hairpin (10 bp)], the binding result (with FL-RIG-I [1]; in data set [2]) was “binds” each time.

Turning to GGCGCGGCUUCGGCCGCGCC (structured_RNA, 5'-triphosphate) [5'ppp 8 bp hairpin (8 bp, SEC peak 1)], the binding result (in data set [3]; with FL-RIG-I [4]) was “binds” each time.

B1: 8 bp-long (self-annealed 8 bp, SEC peak 2) (dsRNA)
RNA 1: GGCGCGGCUUCGGCCGCGCC
RNA 2: GGCGCGGCUUCGGCCGCGCC
modifications: 5'-triphosphate on each strand
As to B1, the binding result (with FL-RIG-I [5]; in data set [6]) was “binds” in each case.
